Measured values from article doi:10.64898/2025.12.30.697126 (bioRxiv, 2025).

Target: single-chain H2B-H2A.Z (human)
Assay: crystal structure

binding result: binds
B1: Peptide SRCAP_(531-560) (peptide)
peptide: SEDAQSQSQADEEEEDDDFGVEYLLARDEE
